# Values of other authors as cited in PMC5242463.
# Target: Trigger Factor (Escherichia coli) (UniProt P0A850)
# Sequence (P0A850 whole entry): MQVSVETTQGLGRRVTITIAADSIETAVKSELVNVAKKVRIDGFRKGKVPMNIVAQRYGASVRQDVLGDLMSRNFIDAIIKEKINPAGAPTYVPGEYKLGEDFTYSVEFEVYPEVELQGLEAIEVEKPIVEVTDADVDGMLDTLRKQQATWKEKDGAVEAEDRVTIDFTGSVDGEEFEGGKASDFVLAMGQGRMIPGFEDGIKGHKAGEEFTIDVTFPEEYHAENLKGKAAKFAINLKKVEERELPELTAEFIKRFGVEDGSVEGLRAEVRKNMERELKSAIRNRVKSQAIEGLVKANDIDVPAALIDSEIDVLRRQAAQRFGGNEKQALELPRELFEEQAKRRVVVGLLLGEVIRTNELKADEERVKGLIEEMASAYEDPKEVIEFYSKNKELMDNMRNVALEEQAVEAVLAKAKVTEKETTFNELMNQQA
# Sequence of Nascent Lep (P00803 whole entry): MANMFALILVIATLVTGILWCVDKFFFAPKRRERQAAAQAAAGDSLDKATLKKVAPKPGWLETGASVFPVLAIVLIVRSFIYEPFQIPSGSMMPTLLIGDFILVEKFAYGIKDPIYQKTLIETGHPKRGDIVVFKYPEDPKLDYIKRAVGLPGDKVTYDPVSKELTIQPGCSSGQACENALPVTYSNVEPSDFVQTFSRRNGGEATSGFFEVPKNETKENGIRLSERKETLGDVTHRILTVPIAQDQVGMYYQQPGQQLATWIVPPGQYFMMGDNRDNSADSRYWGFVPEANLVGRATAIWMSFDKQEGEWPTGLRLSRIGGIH
substance,measurement,value
Nascent Lep (from UniProt P00803),Kd,311 nM
